The text below walks through data of patent US20090022659A1 (ALDERBIO, published 2009).

In general, Kd refers to the constant that tells how readily two partners part at equilibrium. What is called EC50 is the concentration needed to bring the measured effect to its halfway point. What is called EC50 (read off the curve) is the midpoint of the concentration-response curve. Low readings indicate a more potent agent, high ones a less potent agent.

For assay [1], the target named is T1, Tumor Necrosis Factor-alpha (TNF-α), R&D systems 210-TA / 210-TA-CF (human, UniProt P01375 77-233).
T1 construct: Bought protein; also called huTNF-α
The experiment in a line: biolayer interferometry (Octet QK); biotinylated TNF-α on streptavidin sensor, antibody 8 nM to 1 nM. As to the method:
Binding kinetics of certain Anti-TNF-α antibodies referenced in this experiment were determined using biolayer Interferometry on an Octet QK instrument (ForteBio, Menlo Park, Calif.). Biotinylated TNF-α (R&D systems part number 210-TA, biotinylated using Pierce EZ-link sulfo-NHS-LC-LC-biotin product number 21338 according to manufacturer's protocols) was initially bound onto a streptavidin coated biosensor (ForteBio, Menlo Park, Calif. part number 18-5006). TNF-α coated sensors were then incubated with the Anti-TNF-α antibodies at concentrations ranging from 8 nM to 1 nM. Binding was monitored as an increase in signal over a period of 900 seconds.
Sensors removed from the antibody dilutions and immediately incubated in diluent were monitored for a dissociation phase over an 1800 second time period. For these studies, all proteins were diluted using ForteBio's sample diluent buffer (ForteBio, Menlo Park, Calif. part number 18-5028). Analysis of Kinetic data was performed using ForteBio Software utilizing full dissociation modeling.

For assay [2], the target named is T1, Tumor Necrosis Factor-alpha (TNF-α), …. Description: OD versus antibody concentration, fitted sigmoid; the assay is not named for this figure (legend: binding affinity of the anti-TNF-α antibody Ab1); the unit is that of the concentration axis, none stands beside the number.
Assay [3] has the same target. Description: OD versus antibody concentration; the assay is not named for this figure (legend: binding affinity of the anti-TNF-α antibody Ab1).
Assay [4] shares this target. The experiment in a line: cell-based or functional assay.

T1 sequence (P01375 77-233 limits assumed): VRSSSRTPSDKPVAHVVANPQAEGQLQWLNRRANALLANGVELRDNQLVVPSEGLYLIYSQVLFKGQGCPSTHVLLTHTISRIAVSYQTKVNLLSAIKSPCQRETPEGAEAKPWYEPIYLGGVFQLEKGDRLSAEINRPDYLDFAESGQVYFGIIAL

B1: anti-TNF-α antibody Ab15 (antibody, V domains shown)
VH: QSVEESGGRLVSPGTPLTLTCTVSGIDLSSYGMGWVRQAPGKGLEYIGYMIASGITYYAAWAKGRFTISKTSSTTVDLKITSPTTEDTATYFCARNYYGMDP
VL: ADIVMTQTPASVSEPVGGTVTIKCQASQSIYSSFSWYQQIPGQRPKLLIYYASTLASGVPSRFSGSGSGTDFTLTISDLECADAATYYCQSNHGSNGDSFGNA
In assay [1], B1 yielded a Kd of 0.01 nM.

B2: anti-TNF-α antibody Ab12 (antibody, V domains shown)
VH: QSVEESGGRLVTPGTPLTLTCTVSGFSLSHYAMGWVRQAPGKGLEWIGIISSNGVTYYATWASGRFTISKTSTTVDLKITSPTTEDTATYFCARGDDTSIIYYIYAFDL
VL: ALVMTQTPSPVSAAVGGTVTISCQSSESVVFNNRLSWYQQKPGQPPKLLIYWASTLASGVPSRFKGSGSGTQFTLTISGVECDDAATYYCAGYKSYSNDDFA
B2 gave a dissociation constant Kd in assay [1] of 0.01 to 0.025 nM.

B3: anti-TNF-α antibody Ab4 (antibody, V domains shown)
VH: QSVEESGGRLVTPGTPLTLTCTVSGLSLSTETINWVRQAPGKGLEWIGYIDSSGGTGYANWARGRFTISKTSTTVDLKITSPTTGDTATYFCARGTITTGMNI
VL: MDTRAPTQLLGLLLLWLTGATFAAVLTQTPSPVSAVVGGTVSISCQSSKRVVNSVALSWYQQKPGRSPKLLIYFASKLASGVPSRFKGSGSGTQFTLAISDVQCDDAATYYCAGHYTDSGDDA
As to B3, in assay [1], binding was characterised by a dissociation constant (Kd) of 0.01 nM.

B4: anti-TNF-α antibody Ab1 (antibody, V domains shown)
VH: QSVEESGGRLVTPGTPLTLTCTVSGFSLSTYNMGWVRQAPGKGLEYIGYVLGSGITYYASWAKGRFTISKTSTTVDLEITSPTTEDTATYFCARDAGGRASL
VL: ADIVMTQTPASVEAAVGGTVTIKCQASQNIRSWLAWYQQKPGQPPKLLIYGASTLASGVPSRFQGSGSGTEYTLTIIDLDCADAATYYCQSNYGSNDNSYGNG
notes: Rabbit-derived; they start with the leader peptide and end at CDR3 (no framework 4); no cleavage site is stated for this antibody
Consider B4, for which a half-maximal effect in assay [2] (EC50) was put at 0.0461 µg/mL. Binding in assay [1] was characterised by a dissociation constant (Kd) of 0.01 nM. The “EC50 (read off the curve)” value in assay [3] is roughly 0.05 µg/mL. For the same molecule, the “EC50 (read off the curve); OD versus antibody concentration (the assay is not named for this figure)” value in assay [4] is roughly 0.0006 µg/mL.

B5: anti-TNF-α antibody Ab7 (antibody, V domains shown)
VH: QSVEESGGRLVTPGTPLTLTCTVSGFSLSSDNMGWVRQAPGKGLEYIGYITYGGFTYYATWAKGRFTISKTSTTVDLKMTSPTTEDTATYFCAREAGGRANV
VL: ADIVMTQTPASVEAAVGGTVTINCQASQSIVSWLAWYQQKPGQPPKLLIYGASTLASGVPSRFKGSGSGTEYTLTISDLECADAATYYCQSNYGSNSHSFGNT
In turn, B5 yielded a dissociation constant Kd in assay [1] of 0.01 nM.

B6: anti-TNF-α antibody Ab3 (antibody, V domains shown)
VH: QSVEESGGRLVTPGTPLTLTCKVSGFSLSSYDMTWVRQAPGKGLEWIGYIWNDGSTAYASWATGRFTISKTSTTVDLKIASPTTEDTATYFCARGPVFATTLGYYFTI
VL: MDTRAPTQLLGLLLLWLPGSTFAIKVTQTPASVSAAVGGTVSINCQASEDIESYLAWYQQKPGQPPKLLLYDASALASGVPSRFKGSGSGTEYTLTISGVECADAATYYCQQGYSYSNVDNS
B6: the Kd in assay [1] lay within 0.02 to 0.04 nM.

B7: anti-TNF-α antibody Ab13 (antibody, V domains shown)
VH: QSVEESGGRLVTPGTPLTLTCTVSGIDLSSYAMGWVRQAPGKGLEYIGYILSSGITYYASWARGRFTISKTSSTTVDLKMTSLTTEDTATYFCARNGNYNSGTDI
VL: ADIVMTQTPASVSEPVGGTVTIKCQASQNIYSTLAWYQQKPGQPPKLLIYLASTLASGVPSRFKGSGSGTQFTLTISDLECADAATYYCQTSHGSNSDSFGYA
Turning to B7, the Kd in assay [1] lay within 0.01 to 0.05 nM.

B8: anti-TNF-α antibody Ab14 (antibody, V domains shown)
VH: QSVEESGGRLVTPGTPLTLTCTVSGFSLSSYAMGWVRQAPGKGLEYIGYIGSSGITYYTSWARGRFTISKPSSTTVDLKMTSLTTEDTATYFCARNGNYNSGTDI
VL: ADIVMTQTPASVSEPVGGTVTIKCQASQNIYSTLAWYQQKPGQPPKLLIYLASTLASGVPSRFKGSGSGTQFTLTISDLECADAATYYCQTNHGSNSDSFGYA
Regarding B8, in assay [1], the dissociation constant Kd worked out at 0.01 nM.

B9: anti-TNF-α antibody Ab18 (antibody, V domains shown)
VH: QSVEESGGRLVTPGTPLTLTCTVSGIDLSSYAMGWVRQAPGKGLEYIGYILSSGITYYASWARGRFTISKTSSTTVDLKMTSLTTEDTATYFCVRNGNYNVGTDI
VL: ADIVMTQTPASVSEPVGGTVTIKCQASQNIYSTLAWYQQKPGQPPKLLIYLASTLESGVPSRFKGSGSGTEFTLTISDLECADAATYYCQTSHGSNSESFGYA
Take B9: in assay [1], the dissociation constant Kd was 0.01 nM.

B10: anti-TNF-α antibody Ab17 (antibody, V domains shown)
VH: QSLEESGGRLVTPGGSLTLTCTVSGIDLSSYAMGWVRQAPGKGLEYIGYVLGSGITYYASWARGRFTISKTSSTTVDLKMTSLTTEDTATYFCVRNDNYNSGTDI
VL: ADIVMTQTPASVSEPVGGTVTIKCQASQSIYSTLAWYQQKPGQPPKLLISLASTLASGVPSRFKGSGSGTQFTLTISDLECADAATYYCQTNHGSNSDSFGYA
For the molecule B10, in assay [1], the Kd amounted to 0.01 nM.

B11: anti-TNF-α antibody Ab9 (antibody, V domains shown)
VH: QSVEESGGRLVTPGTPLTLTCTVSGFSLSIYWMTWVRQAPGKGLEWIGVISTDGSAYYATWAKGRFTISKTSSTTVDLRITSPTTEDTATYFCAGGGGMDP
VL: AQVLTQTPSSVSAAVGGTVTVSCQSSQNVYNNNDFVWFQQKPGQPPKRLIYWASTLASGVPSRFKGSGSGTQFTLTINDLECDDAATYYCAGAYITELRT
Regarding B11, in assay [1], the Kd fell in the range of 0.025 to 0.05 nM.

B12: anti-TNF-α antibody Ab11 (antibody, V domains shown)
VH: QSVEESGGRLVTPGTPLTLTCTVSGFSLSIYWMTWVRQAPGKGLEWIGVIASDGSTYYASWAKGRFTISKASSTTVDLKIASPTIEDTATYFCAGGGGMDP
VL: AQVMTQTPASVSAAVGGTVTISCQSSESVYNNNDLIWFRQKPGQPPKRLIYWASQLASGVSSRFKGSGSGTQFTLTINDLECDDAATYYCAGAYDSEIRA
In assay [1], B12 returned an equilibrium dissociation constant (Kd) of 0.02 nM.

B13: anti-TNF-α antibody Ab10 (antibody, V domains shown)
VH: QSVEESGGRLVTPGTPLTLTCTVSGFSLSIYWMTWVRQAPGRGLEWIGVISTDGTTYYANWAKGRFTISKASSTTVDLRITSPTTEDTATYFCAGGGGMDP
VL: AQVLTQTASSVSAAVGGTVTISCQSSQSVYNNNDFIWFQQKPGQPPKRLIYWASTLASGVSSRFKGSGSGTQFTLTINDLECDDAAVYYCAGAYDSEVRA
Molecule B13 showed a Kd in assay [1] of 0.015 to 0.03 nM.

B14: anti-TNF-α antibody Ab5 (antibody, V domains shown)
VH: QSVEESGGRLVTPGTPLTLTCAVSGFSLSVYWMTWVRQAPGKGLEWIGTISTDGITVYATWAKGRFTISKTSSTAVDLKLTSPTTEDTATYFCAGGGGMDP
VL: MDTRAPTQLLGLLLLWLPGATLAQVVTQTPASVSAAVGGTVTISCQSSQNVYNNNDLVWFQQKPGQPPKRLVYWASTLASGVSSRFRGSGSGTQFILTISDLQCDDAATYYCAGAYDSEIRA
On to B14, for which the Kd in assay [1] lay in the range of 0.025 to 0.05 nM.

B15: anti-TNF-α antibody Ab6 (antibody, V domains shown)
VH: METGLRWLLLVAVFKGVQCQSVEESGGRLVTPGTPLTLTCTVSGFSLSSNTISWVRQAPGKGLEWIGYIWRGVSTYYATWAKGRFTISKTSSTTVDLKITGPTTEDTATYFCARDAGDGGGYSLDL
VL: MDTRAPTQLLGLLLLWLPDARCAYDMTQTPASVEVAGGGTVTIKCQASQSIANRLAWYQQKPGQPPKLLIYYASTLASGVPSRFSGSGSGTEFTLTISGVQCDDAATYYCQQTYSDNNVDNA
B15 had a Kd in assay [1] of 0.01 nM.

B16: anti-TNF-α antibody Ab2 (antibody, V domains shown)
VH: QSVEESGGRLVTPGTPLTLTCSVSGFSLNNYVMGWVRQAPGKGLEFIGYIAFGIGPYYASWAKGRFTISSTSSTTVDLKMTSLTPEDTATYFCARGDYSGNDI
VL: ADIVMTQTPSSVSEPVRGTVTIKCQASQNIYSYLSWYQQSPGQPPKLLIYKASTLASGVPSRFKGSGSGTDFTLTISDLECADAATYYCQSNYGSDSDSFGNA
As to B16, the affinity in assay [1], expressed as Kd, was 0.01 nM.

B17: anti-TNF-α antibody Ab16 (antibody, V domains shown)
VH: QSLEESGGRLVKPDETLTITCTVSGIDLNNYNMGWVRQAPGKGLEYIGYILGSGITYYATWAKGRFTISKTSSTTVDLKMTSLTTEDTATYFCAGSIYYRGYGMDP
VL: ADIVMTQTPASVSEPVGGTVTIKCQASQTIYSSLSWYQQKPGQRPKLLIYAASTLASGVPSRFKGSGSGTDFTLTISDLECADAATYYCQSNHGSNSDSYGNA
Molecule B17 came in with a Kd in assay [1] of 0.01 nM.

B18: anti-TNF-α antibody Ab19 (antibody, V domains shown)
VH: QSVEESGGRLVTPGTPLTLTCSVSGFSLNNYIMGWVRQAPGKGLEFIGYIAFGIGPYYASWAKGRFTSSSTSSTTVDLKMTSLTPEDTATYFCARGDVSGNDI
VL: ADIVMTQTPSSVSEPVRGTVTIKCQASQNIYSYLSWYRQSPGQPPNLLIYKASTLASGVPSRFKGSGSGTDFTLTISDLECADAATYYCQSNYGSNSDSFGNA
B18: the Kd in assay [1] came out at 0.06 nM.

B19: anti-TNF-α antibody Ab8 (antibody, V domains shown)
VH: QSVEESGGRLVTPGTPLTLTCTASGFSLSNYVMGWVRQAPGKGLEFIGYIAFGIGPYYATWAKGRFSISSTSSTTVDLTMTSLTPEDTATYFCARGDYSGNNI
VL: ADIVMTQTPSSVSEPVGGTVTIMCQASQNIYSYLSWYQQKPGQPPKLLIYKASTLASGVPSRFAGSGSGTDFTLTISDLECADAATYYCQSNYGSNSDSFGNA
Consider B19, for which, in assay [1], the Kd was determined as 0.01 nM.
